Source: publication PMC5852461 (Biochemistry, 2018)
Each block holds one molecule with its values, some of them ahead of it.

Experiments:
[1] = target: TatBC–strepII–His6 complex (E. coli) (UniProt P69425); assay: SPR; Biacore T200; TatBC complex captured (about 300 RU) on polyclonal TatB antibodies coupled to a CM5 chip; precursor as analyte at 1.9–30 μM, injected for 3 min; 25 °C; 20 mM MOPS-NaOH, 200 mM NaCl, 1 mM EDTA, 0.01% GDN, pH 8; 1:1 binding model
[2] = target: TatBC–His6 complex (GDN-solubilized, purified) (E. coli) (UniProt P69425); assay: ITC; TatBC–His6 (45 μM) in the cell; titrant 150 μM HiPIP or 85 μM TorA signal peptide; 25 °C; 20 mM MOPS-NaOH, 200 mM NaCl, 1 mM EDTA, 0.01% GDN, pH 8; one-site model; molar ratio counted per TatC–His6
[3] = target: T1, TatBC–His6 complex (GDN-solubilized, purified) (E. coli, UniProt P69425 1-171; P69423 1-258); assay: as above; conditions: both partners purified
T1 sequence (looked up) 1: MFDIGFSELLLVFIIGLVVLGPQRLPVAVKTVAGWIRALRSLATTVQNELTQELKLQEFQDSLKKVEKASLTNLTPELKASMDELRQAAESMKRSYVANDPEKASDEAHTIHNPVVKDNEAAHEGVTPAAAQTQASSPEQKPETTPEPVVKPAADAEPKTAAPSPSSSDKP
T1 sequence (looked up) 2: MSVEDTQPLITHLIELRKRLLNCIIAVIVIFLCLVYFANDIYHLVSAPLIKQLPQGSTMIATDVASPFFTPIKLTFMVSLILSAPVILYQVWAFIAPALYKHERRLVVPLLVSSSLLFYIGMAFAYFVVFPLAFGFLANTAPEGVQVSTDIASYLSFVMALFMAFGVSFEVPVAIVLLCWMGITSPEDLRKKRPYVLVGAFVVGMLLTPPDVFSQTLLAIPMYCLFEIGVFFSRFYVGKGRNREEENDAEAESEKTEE

- Kd [1]: 4.5 µM
- koff [1]: 0.0018 s⁻¹
- kon [1]: 400 M⁻¹ s⁻¹
Molecule: E. coli CueO precursor, hexahistidine-tagged (from UniProt P36649 29-516) (natural protein)

- Kd [2]: 6 µM
- stoichiometry N (HiPIP per TatC) [2]: 0.33
Molecule: high-potential iron–sulfur protein (HiPIP) precursor from Acidithiobacillus ferrooxidans, His6-tagged (natural protein)

- Kd [3]: ~0.5 µM
- stoichiometry N [3]: 0.44 peptide per TatC
Molecule: SRRRFLAQLGGLTVAGMLGPSLLTPRR [TorA signal peptide (residues 10–36)]
